Assays:
[1] = biological target: gp120 (isolate 92BR020) (HIV-1 isolate 92BR020); assay: ELISA on gp120 (isolate 92BR020), buffer pH 6
BG505 N332T [2] = biological target: BG505 N332T
JR-CSF R476A [3] = biological target: JR-CSF R476A
BG505 R476A [4] = biological target: BG505 R476A
JR-CSF G471A [5] = biological target: JR-CSF G471A
BG505 T372A [6] = biological target: BG505 T372A
BG505 N363A [7] = biological target: BG505 N363A
JR-CSF K207A [8] = biological target: JR-CSF K207A
BG505 G471A [9] = biological target: BG505 G471A
JR-CSF S199A [10] = biological target: JR-CSF S199A
JR-CSF N276A [11] = biological target: JR-CSF N276A
BG505 T373A [12] = biological target: BG505 T373A
JR-CSF N362A [13] = biological target: JR-CSF N362A
JR-CSF N283A [14] = biological target: JR-CSF N283A
BG505 S365A [15] = biological target: BG505 S365A
BG505 L179A [16] = biological target: BG505 L179A
BG505 K121A [17] = biological target: BG505 K121A
[18] = biological target: JR-CSF Env on JR-CSF pseudovirus
JR-CSF S365A [19] = biological target: JR-CSF S365A
JR-CSF T198A [20] = biological target: JR-CSF T198A
BG505 L369A [21] = biological target: BG505 L369A
BG505 S364A [22] = biological target: BG505 S364A
[23] = biological target: BG505 Env on BG505 pseudovirus (HIV isolate BG505)
[24] = biological target: gp120 (isolate 92BR020) (HIV-1 isolate 92BR020); assay: ELISA on gp120 (isolate 92BR020), buffer pH 5.5
[25] = biological target: BG505 gp120 captured from lysed virions (HIV isolate BG505); assay: ELISA on BG505 gp120 in PBS pH 7.4
BG505 N332T [26] = assay: ELISA, gp120 captured from lysed virions
JR-CSF R476A [27] = assay: ELISA, gp120 captured from lysed virions
JR-CSF E370A = assay: ELISA, gp120 captured from lysed virions
BG505 R476A [28] = assay: ELISA, gp120 captured from lysed virions
JR-CSF G471A [29] = assay: ELISA, gp120 captured from lysed virions
BG505 T372A [30] = assay: ELISA, gp120 captured from lysed virions
JR-CSF N262A = assay: ELISA, gp120 captured from lysed virions
BG505 N363A [31] = assay: ELISA, gp120 captured from lysed virions
JR-CSF K207A [32] = assay: ELISA, gp120 captured from lysed virions
[33] = biological target: BG505 gp120 captured from lysed virions (HIV isolate BG505); assay: ELISA, gp120 captured from lysed virions
BG505 G471A [34] = assay: ELISA, gp120 captured from lysed virions
JR-CSF S199A [35] = assay: ELISA, gp120 captured from lysed virions
JR-CSF N276A [36] = assay: ELISA, gp120 captured from lysed virions
BG505 G367A = assay: ELISA, gp120 captured from lysed virions
BG505 T373A [37] = assay: ELISA, gp120 captured from lysed virions
JR-CSF N362A [38] = assay: ELISA, gp120 captured from lysed virions
JR-CSF N283A [39] = assay: ELISA, gp120 captured from lysed virions
BG505 S365A [40] = assay: ELISA, gp120 captured from lysed virions
BG505 L179A [41] = assay: ELISA, gp120 captured from lysed virions
JR-CSF T373A = assay: ELISA, gp120 captured from lysed virions
BG505 E370A = assay: ELISA, gp120 captured from lysed virions
BG505 K121A [42] = assay: ELISA, gp120 captured from lysed virions
BG505 V371A = assay: ELISA, gp120 captured from lysed virions
JR-CSF S365A [43] = assay: ELISA, gp120 captured from lysed virions
BG505 M475A = assay: ELISA, gp120 captured from lysed virions
JR-CSF T198A [44] = assay: ELISA, gp120 captured from lysed virions
BG505 N197A = assay: ELISA, gp120 captured from lysed virions
BG505 L369A [45] = assay: ELISA, gp120 captured from lysed virions
BG505 S364A [46] = assay: ELISA, gp120 captured from lysed virions
BG505 G366A = assay: ELISA, gp120 captured from lysed virions
JR-CSF N279A = assay: ELISA, gp120 captured from lysed virions
JR-CSF G473A = assay: ELISA, gp120 captured from lysed virions
JR-CSF V371A = assay: ELISA, gp120 captured from lysed virions
JR-CSF G472A = assay: ELISA, gp120 captured from lysed virions
BG505 N283A = assay: ELISA, gp120 captured from lysed virions
JR-CSF G366A = assay: ELISA, gp120 captured from lysed virions

Substance: 12A12 (antibody)
- EC50 (read off the curve) [1]: 0.4 µg/mL
- IC50, pseudovirus neutralization (JR-CSF V372A): 0.214 µg/mL
- IC50, pseudovirus neutralization (JR-CSF D279A): > 50 µg/mL
- IC50, pseudovirus neutralization (BG505 N332T [2]): 0.031 µg/mL
- IC50, pseudovirus neutralization (JR-CSF R476A [3]): 0.082 µg/mL
- IC50, pseudovirus neutralization (JR-CSF D474A): 0.075 µg/mL
- IC50, pseudovirus neutralization (BG505 R476A [4]): 0.026 µg/mL
- IC50, pseudovirus neutralization (JR-CSF G471A [5]): 0.114 µg/mL
- IC50, pseudovirus neutralization (BG505 T372A [6]): 0.037 µg/mL
- IC50, pseudovirus neutralization (BG505 N363A [7]): 0.038 µg/mL
- IC50, pseudovirus neutralization (JR-CSF K207A [8]): 0.383 µg/mL
- IC50, pseudovirus neutralization (JR-CSF K282A): 2.33 µg/mL
- IC50, pseudovirus neutralization (JR-CSF M373A): 0.134 µg/mL
- IC50, pseudovirus neutralization (BG505 G471A [9]): 0.029 µg/mL
- IC50, pseudovirus neutralization (BG505 D474A): 0.02 µg/mL
- IC50, pseudovirus neutralization (JR-CSF S199A [10]): 0.032 µg/mL
- IC50, pseudovirus neutralization (JR-CSF N276A [11]): 2.72 µg/mL
- IC50, pseudovirus neutralization (BG505 T373A [12]): 0.039 µg/mL
- IC50, pseudovirus neutralization (JR-CSF N362A [13]): 0.11 µg/mL
- IC50, pseudovirus neutralization (JR-CSF N283A [14]): 0.219 µg/mL
- IC50, pseudovirus neutralization (BG505 N262A): 0.017 µg/mL
- IC50, pseudovirus neutralization (BG505 S365A [15]): 0.057 µg/mL
- IC50, pseudovirus neutralization (BG505 L179A [16]): 0.056 µg/mL
- IC50, pseudovirus neutralization (BG505 K121A [17]): 0.053 µg/mL
- IC50, pseudovirus neutralization [18]: 0.219 µg/mL
- IC50, pseudovirus neutralization (BG505 K282A): 0.04 µg/mL
- IC50, pseudovirus neutralization (JR-CSF S365A [19]): 0.18 µg/mL
- IC50, pseudovirus neutralization (BG505 N276A): 0.003 µg/mL
- IC50, pseudovirus neutralization (JR-CSF T198A [20]): 0.622 µg/mL
- IC50, pseudovirus neutralization (BG505 L369A [21]): 0.03 µg/mL
- IC50, pseudovirus neutralization (BG505 S364A [22]): 0.032 µg/mL
- IC50, pseudovirus neutralization (BG505 N279A): 0.058 µg/mL
- IC50, pseudovirus neutralization [23]: 0.02 µg/mL
- IC50, pseudovirus neutralization (JR-CSF P369A): 0.205 µg/mL
- EC50 (read off the curve) [24]: 0.4 µg/mL

Substance: NC-Cow1 (antibody)
- EC50 (read off the curve) [25]: 0.1 µg/mL
- EC50 (BG505 N332T [26]): 0.05 µg/mL
- EC50 (JR-CSF R476A [27]): 0.281 µg/mL
- EC50 (JR-CSF E370A): 1.16 µg/mL
- EC50 (BG505 R476A [28]): 0.07 µg/mL
- EC50 (JR-CSF G471A [29]): 0.148 µg/mL
- EC50 (BG505 T372A [30]): 0.07 µg/mL
- EC50 (JR-CSF N262A): 5.64 µg/mL
- EC50 (BG505 N363A [31]): 0.09 µg/mL
- EC50 (JR-CSF K207A [32]): 0.052 µg/mL
- EC50 [33]: 0.04 µg/mL
- EC50 (BG505 G471A [34]): 0.05 µg/mL
- EC50 (JR-CSF S199A [35]): 0.058 µg/mL
- EC50 (JR-CSF N276A [36]): 0.029 µg/mL
- EC50 (BG505 G367A): 1.34 µg/mL
- EC50 (BG505 T373A [37]): 0.12 µg/mL
- EC50 (JR-CSF N362A [38]): 0.038 µg/mL
- EC50 (JR-CSF N283A [39]): 0.133 µg/mL
- EC50 (BG505 S365A [40]): 0.07 µg/mL
- EC50 (BG505 L179A [41]): 0.05 µg/mL
- EC50 (JR-CSF T373A): 0.067 µg/mL
- EC50 (BG505 E370A): 0.11 µg/mL
- EC50 (BG505 K121A [42]): 0.04 µg/mL
- EC50 (BG505 V371A): 0.24 µg/mL
- EC50 (JR-CSF S365A [43]): 0.028 µg/mL
- EC50 (BG505 M475A): 0.08 µg/mL
- EC50 (JR-CSF T198A [44]): 0.045 µg/mL
- EC50 (BG505 N197A): 0.04 µg/mL
- EC50 (BG505 L369A [45]): 0.24 µg/mL
- EC50 (BG505 S364A [46]): 0.14 µg/mL
- EC50 (BG505 G366A): 0.13 µg/mL
- EC50 (JR-CSF N279A): 0.036 µg/mL
- EC50 (JR-CSF G473A): 6.83 µg/mL
- EC50 (JR-CSF V371A): 1.36 µg/mL
- EC50 (JR-CSF G472A): 11.2 µg/mL
- EC50 (BG505 N283A): 0.1 µg/mL
- EC50 (JR-CSF G366A): 0.027 µg/mL
- IC50, pseudovirus neutralization (BG505 N332T [2]): 0.018 µg/mL
- IC50, pseudovirus neutralization (JR-CSF R476A [3]): > 50 µg/mL
- IC50, pseudovirus neutralization (BG505 R476A [4]): 0.012 µg/mL
- IC50, pseudovirus neutralization (JR-CSF G471A [5]): 50 µg/mL
- IC50, pseudovirus neutralization (BG505 T372A [6]): 0.028 µg/mL
- IC50, pseudovirus neutralization (BG505 N363A [7]): 0.013 µg/mL
- IC50, pseudovirus neutralization (JR-CSF K207A [8]): 1.8 µg/mL
- IC50, pseudovirus neutralization (BG505 G471A [9]): 0.013 µg/mL
- IC50, pseudovirus neutralization (JR-CSF S199A [10]): 0.404 µg/mL
- IC50, pseudovirus neutralization (JR-CSF N276A [11]): 1.76 µg/mL
- IC50, pseudovirus neutralization (BG505 T373A [12]): 0.016 µg/mL
- IC50, pseudovirus neutralization (JR-CSF N362A [13]): 0.496 µg/mL
- IC50, pseudovirus neutralization (JR-CSF N283A [14]): 6.94 µg/mL
- IC50, pseudovirus neutralization (BG505 S365A [15]): 0.015 µg/mL
- IC50, pseudovirus neutralization (BG505 L179A [16]): 0.018 µg/mL
- IC50, pseudovirus neutralization (BG505 K121A [17]): 0.029 µg/mL
- IC50, pseudovirus neutralization (JR-CSF S365A [19]): 0.129 µg/mL
- IC50, pseudovirus neutralization (JR-CSF T198A [20]): 2.98 µg/mL
- IC50, pseudovirus neutralization (BG505 L369A [21]): 0.015 µg/mL
- IC50, pseudovirus neutralization (BG505 S364A [22]): 0.014 µg/mL
